# Patent US20030186841
# Columns and labels:
# [1] = target: C7-PBD-VP64 (synthetic/human PR) (UniProt P08046); assay: cell_activity; conditions: +RU486
# [2] = tested on: E2C(Sp1) six-finger (synthetic); assay: EMSA
# [3] = tested on: E2C(Zif) six-finger (synthetic); assay: EMSA
# [4] = tested on: B3(F2) three-finger protein (synthetic); assay: EMSA
# [5] = tested on: E2F-PBD-VP64 heterodimer (synthetic/human PR); assay: cell_activity; conditions: basal; 54986 with RU486; pcDNA control 17209
# [6] = target: pmGCG (Zif268-C7 finger 2 variant) finger 2 helix -2 to 6 = SRSDDLVR in Zif268-C7 (synthetic) (UniProt P08046); assay: EMSA
# [7] = target: VP16-C7-ER (synthetic/mouse ER) (UniProt P19785); assay: cell_activity; conditions: 4-OH tamoxifen
# [8] = tested on: VP16-C7-PR (synthetic/human PR); assay: cell_activity; conditions: RU486
# [9] = tested on: B3B(Sp1)-VP64 (synthetic); assay: cell_activity; conditions: HeLa luciferase
# [10] = tested on: B3C2(Sp1)-VP64 (synthetic); assay: cell_activity; conditions: HeLa luciferase
# [11] = target: pGTA (Zif268-C7 finger 2 variant) finger 2 helix -2 to 6 = SQSSSLVR in Zif268-C7 (synthetic) (UniProt P08046); assay: EMSA; conditions: [none]
# [12] = target: pGCA (Zif268-C7 finger 2 variant) finger 2 helix -2 to 6 = SQSGDLRR in Zif268-C7 (synthetic) (UniProt P08046); assay: EMSA; conditions: [none]
# [13] = target: pGTC (Zif268-C7 finger 2 variant) finger 2 helix -2 to 6 = SDPGALVR in Zif268-C7 (synthetic) (UniProt P08046); assay: EMSA; conditions: [none]
# [14] = tested on: E2(F2) three-finger protein (synthetic); assay: EMSA
# [15] = tested on: E2C(Sp1)-VP16 (synthetic); assay: cell_activity; conditions: HeLa luciferase
# [16] = target: pmGAC (Zif268-C7 finger 2 variant) finger 2 helix -2 to 6 = SDPGNLVR in Zif268-C7 (synthetic) (UniProt P08046); assay: EMSA; conditions: [none]
# [17] = target: pmGGT (Zif268-C7 finger 2 variant) finger 2 helix -2 to 6 = STSGHLVR in Zif268-C7 (synthetic) (UniProt P08046); assay: EMSA; conditions: [7-9,26-28]
# [18] = target: pmGAG (Zif268-C7 finger 2 variant) finger 2 helix -2 to 6 = SRSDNLVR in Zif268-C7 (synthetic) (UniProt P08046); assay: EMSA; conditions: [7-9,26-28]
# [19] = target: pmGTG (Zif268-C7 finger 2 variant) finger 2 helix -2 to 6 = SRSDELVR in Zif268-C7 (synthetic) (UniProt P08046); assay: EMSA; conditions: [7-9,26-28]
substance,measurement,setting,value
"C7 inverted repeat, 0 spacer, TATA reporter",activity (luciferase units),[1]; 2921 without,10800
"C7 direct repeat, 5 bp spacer, TATA reporter",activity (luciferase units),[1]; 2597 without,5460
"C7 inverted repeat, 2 bp spacer, TATA reporter",activity (luciferase units),[1]; 6964 without,19200
"C7 direct repeat, 3 bp spacer, TATA reporter",activity (luciferase units),[1]; 3269 without,5140
"C7 everted repeat, 2 bp spacer, TATA reporter",activity (luciferase units),[1]; 7880 without,20800
"C7 inverted repeat, 4 bp spacer, TATA reporter",activity (luciferase units),[1]; 3502 without,8860
"C7 inverted repeat, 5 bp spacer, TATA reporter",activity (luciferase units),[1]; 4704 without,12400
GGGGCCGGAGCCGCAGTGA (double strand) [e2c-a],Kd,[2],0.75 nM
same,Kd,[3],2.3 nM
GGGGCCGGAAGTCTGAATG (double strand) [e2c-muths2],Kd,[2],100 nM
same,Kd,[3],200 nM
"C7 everted repeat, 3 bp spacer, TATA reporter",activity (luciferase units),[1]; 9670 without,21500
GGAGGGGAGG (double strand) [b3],Kd,[4],4 nM
"GAGGAGGGCTGCTTGAGGAAGTA (double strand) [erbB-2 promoter reporter, E2F dimer site]",activity (luciferase units),[5],61400
"C7 direct repeat, 2 bp spacer, TATA reporter",activity (luciferase units),[1]; 3417 without,8170
GGACGCCGCCGCGGGTTTTCCCGCGGCGGCGTCC [F2 site GCG],Kd,[6]; [none],9 nM
10xC7 pGL3prom reporter,activity (fold induction),[7],43
same,activity (fold induction),[8],26
"GCCTGAGAGGGAGCGGTG (double strand) [integrin beta3 promoter reporter, b3b site]",activity (fold activation),[9],12
"C7 direct repeat, 1 bp spacer, TATA reporter",activity (luciferase units),[1]; 3383 without,8200
"C7 everted repeat, 4 bp spacer, TATA reporter",activity (luciferase units),[1]; 6974 without,8900
"C7 direct repeat, 4 bp spacer, TATA reporter",activity (luciferase units),[1]; 3966 without,6940
"C7 everted repeat, 1 bp spacer, TATA reporter",activity (luciferase units),[1]; 6029 without,13600
"GGAGGGGACGCGGTGGGT (double strand) [integrin beta3 promoter reporter, b3c2 site]",activity (fold activation),[10],22
GGACGCTACCGCGGGTTTTCCCGCGGTAGCGTCC [F2 site GTA],Kd,[11],25 nM
"C7 direct repeat, 0 spacer, TATA reporter",activity (luciferase units),[1]; 4081 without,20000
GGACGCTGCCGCGGGTTTTCCCGCGGCAGCGTCC [F2 site GCA],Kd,[12],2 nM
GGACGCGACCGCGGGTTTTCCCGCGGTCGCGTCC [F2 site GTC],Kd,[13],40 nM
"C7 inverted repeat, 1 bp spacer, TATA reporter",activity (luciferase units),[1]; 4342 without,9530
GGGGGCGAGG (double strand) [e2],Kd,[14],3 nM
"GGGGCCGGAGCCGCAGTG (double strand) [erbB-2 promoter reporter, E2C site]",activity (fold activation),[15],5
GGACGCGTCCGCGGGTTTTCCCGCGGACGCGTCC [F2 site GAC],Kd,[16],3 nM
GGACGCACCCGCGGGTTTTCCCGCGGGTGCGTCC [F2 site GGT],Kd,[17],15 nM
"C7 everted repeat, 5 bp spacer, TATA reporter",activity (luciferase units),[1]; 6892 without,13100
"C7 inverted repeat, 3 bp spacer, TATA reporter",activity (luciferase units),[1]; 7132 without,12800
GGACGCCTCCGCGGGTTTTCCCGCGGAGGCGTCC [F2 site GAG],Kd,[18],1 nM
same,Kd,"[6]; [7-9,26-28]",6 nM
same,Kd,[19],30 nM
AGTCTGAATGCCGCAGTGG (double strand) [e2c-muths1],Kd,[2],65 nM
same,Kd,[3],200 nM
"C7 everted repeat, 0 spacer, TATA reporter",activity (luciferase units),[1]; 8750 without,17400
